In patent US20140186363A1 (UNIVERSITY OF ZURICH, published 2014):

How the values were obtained:
[1] = molecular target: T1, MAGEA3 (human, UniProt P43357 1-314); assay: ELISA, plate coated with recombinant MAGEA3, serial dilution of antibody
T1 construct: also called recombinant MAGEA3; MAGEA3-protein

[2] = molecular target: T2, MAGEA3 peptide no 26; assay: peptide ELISA (coated 20mer)
T2 construct: also called MAGEA3 aa 251-270
T2 peptide: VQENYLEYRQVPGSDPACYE
Procedure: (§1) 20mer peptides spanning the entire MAGEA3 protein with 10 aa overlaps shared by each adjacent peptide (Peptides&Elephants, Nuthetal, Germany) were used to coat Maxisorp ELISA plates (Nunc, Rochester, N.Y.). As control a 20mer peptide representing amino acids 40-21 from the NY-ESO-1 protein was used (rev). The numbering of amino acids of MAGEA3 is based on SEQ ID No:41.
(§2) Human recombinant antibody was used at a concentration of 1 μg/ml. Bound human antibody was detected using horseradish peroxidase-conjugated goat anti-human IgG Fc-gamma specific antibodies (Jackson ImmunoResearch, Europe Ltd., Cambridgeshire, UK).

[3] = molecular target: T3, MAGEA3 peptide no 5; assay: peptide ELISA (coated 20mer)
T3 construct: also called MAGEA3 aa 41-60
T3 peptide: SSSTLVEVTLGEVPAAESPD
Procedure: as §1, §2

[4] = molecular target: T4, MAGEA3 peptide no 6; assay: peptide ELISA (coated 20mer)
T4 construct: also called MAGEA3 aa 51-70
T4 peptide: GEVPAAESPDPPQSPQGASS
Procedure: as §1, §2

[5] = molecular target: T5, MAGEA3 peptide no 25; assay: peptide ELISA (coated 20mer)
T5 construct: also called MAGEA3 aa 241-260
T5 peptide: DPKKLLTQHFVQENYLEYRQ
Procedure: as §1, §2

[6] = molecular target: T6, MAGEA3 peptide no 9; assay: peptide ELISA (coated 20mer)
T6 construct: also called MAGEA3 aa 81-100
T6 peptide: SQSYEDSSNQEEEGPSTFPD
Procedure: as §1, §2

[7] = molecular target: T7, MAGEA3 peptide no 13; assay: peptide ELISA (coated 20mer)
T7 construct: also called MAGEA3 aa 121-140
T7 peptide: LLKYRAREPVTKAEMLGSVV
Procedure: as §1, §2

[8] = molecular target: T8, MAGEA3 peptide no 11; assay: peptide ELISA (coated 20mer)
T8 construct: also called MAGEA3 aa 101-120
T8 peptide: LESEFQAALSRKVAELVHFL
Procedure: as §1, §2

[9] = molecular target: T9, MAGEA3 peptide no 27; assay: peptide ELISA (coated 20mer)
T9 construct: also called MAGEA3 aa 261-280
T9 peptide: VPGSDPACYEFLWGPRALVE
Procedure: as §1, §2

[10] = molecular target: T10, MAGEA3 peptide no 15; assay: peptide ELISA (coated 20mer)
T10 construct: also called MAGEA3 aa 141-160
T10 peptide: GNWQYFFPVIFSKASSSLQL
Procedure: as §1, §2

[11] = molecular target: T11, MAGEA3 peptide no 14; assay: peptide ELISA (coated 20mer)
T11 construct: also called MAGEA3 aa 131-150
T11 peptide: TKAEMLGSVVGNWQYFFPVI
Procedure: as §1, §2

[12] = molecular target: T12, MAGEA3 peptide no 12; assay: peptide ELISA (coated 20mer)
T12 construct: also called MAGEA3 aa 111-130
T12 peptide: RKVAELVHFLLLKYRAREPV
Procedure: as §1, §2

[13] = molecular target: T13, MAGEA3 peptide no 2; assay: peptide ELISA (coated 20mer)
T13 construct: also called MAGEA3 aa 11-30
T13 peptide: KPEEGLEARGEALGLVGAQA
Procedure: as §1, §2

[14] = molecular target: T14, MAGEA3 peptide no 18; assay: peptide ELISA (coated 20mer)
T14 construct: also called MAGEA3 aa 171-190
T14 peptide: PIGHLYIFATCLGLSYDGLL
Procedure: as §1, §2

[15] = molecular target: T15, MAGEA3 peptide no 1; assay: peptide ELISA (coated 20mer)
T15 construct: also called MAGEA3 aa 1-20
T15 peptide: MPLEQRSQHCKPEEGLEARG
Procedure: as §1, §2

[16] = molecular target: T16, MAGEA3 peptide no 10; assay: peptide ELISA (coated 20mer)
T16 construct: also called MAGEA3 aa 91-110
T16 peptide: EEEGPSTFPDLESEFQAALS
Procedure: as §1, §2

[17] = molecular target: T17, MAGEA3 peptide no 22; assay: peptide ELISA (coated 20mer)
T17 construct: also called MAGEA3 aa 211-230
T17 peptide: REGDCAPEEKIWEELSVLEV
Procedure: as §1, §2

[18] = molecular target: T18, MAGEA3 peptide no 19; assay: peptide ELISA (coated 20mer)
T18 construct: also called MAGEA3 aa 181-200
T18 peptide: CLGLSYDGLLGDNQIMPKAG
Procedure: as §1, §2

[19] = molecular target: T19, MAGEA3 peptide no 30; assay: peptide ELISA (coated 20mer)
T19 construct: also called MAGEA3 aa 291-310
T19 peptide: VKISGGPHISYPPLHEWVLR
Procedure: as §1, §2

[20] = molecular target: T20, MAGEA3 peptide no 3; assay: peptide ELISA (coated 20mer)
T20 construct: also called MAGEA3 aa 21-40
T20 peptide: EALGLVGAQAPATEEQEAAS
Procedure: as §1, §2

[21] = molecular target: T21, MAGEA3 peptide no 21; assay: peptide ELISA (coated 20mer)
T21 construct: also called MAGEA3 aa 201-220
T21 peptide: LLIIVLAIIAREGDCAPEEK
Procedure: as §1, §2

[22] = molecular target: T22, MAGEA3 peptide no 28; assay: peptide ELISA (coated 20mer)
T22 construct: also called MAGEA3 aa 271-290
T22 peptide: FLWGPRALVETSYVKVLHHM
Procedure: as §1, §2

[23] = molecular target: T23, MAGEA3 peptide no 29; assay: peptide ELISA (coated 20mer)
T23 construct: also called MAGEA3 aa 281-300
T23 peptide: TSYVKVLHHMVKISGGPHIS
Procedure: as §1, §2

[24] = molecular target: T24, MAGEA3 peptide no 20; assay: peptide ELISA (coated 20mer)
T24 construct: also called MAGEA3 aa 191-210
T24 peptide: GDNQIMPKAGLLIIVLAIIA
Procedure: as §1, §2

[25] = molecular target: T25, MAGEA3 peptide no 17; assay: peptide ELISA (coated 20mer)
T25 construct: also called MAGEA3 aa 161-180
T25 peptide: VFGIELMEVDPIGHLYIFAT
Procedure: as §1, §2

[26] = molecular target: T26, MAGEA3 peptide no 24; assay: ELISA on plate-coated 20mer peptide, antibody at 1 µg/ml, anti-human IgG Fc-HRP
T26 construct: also called MAGEA3 aa 231-250
T26 peptide: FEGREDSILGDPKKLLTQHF
Procedure: as §1, §2

[27] = molecular target: T27, MAGEA3 peptide no 8; assay: as above
T27 construct: also called MAGEA3 aa 71-90
T27 peptide: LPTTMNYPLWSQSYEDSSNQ
Procedure: as §1, §2

[28] = molecular target: T28, MAGEA3 peptide no 7; assay: as above
T28 construct: also called MAGEA3 aa 61-80
T28 peptide: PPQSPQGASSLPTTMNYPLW
Procedure: as §1, §2

[29] = molecular target: T29, MAGEA4 (UniProt P43358 1-317, limits assumed); assay: Western blot of recombinant protein, anti-human IgG-HRP
T29 construct: also called recombinant MAGEA4-protein; CT1.4
T29 sequence (looked up): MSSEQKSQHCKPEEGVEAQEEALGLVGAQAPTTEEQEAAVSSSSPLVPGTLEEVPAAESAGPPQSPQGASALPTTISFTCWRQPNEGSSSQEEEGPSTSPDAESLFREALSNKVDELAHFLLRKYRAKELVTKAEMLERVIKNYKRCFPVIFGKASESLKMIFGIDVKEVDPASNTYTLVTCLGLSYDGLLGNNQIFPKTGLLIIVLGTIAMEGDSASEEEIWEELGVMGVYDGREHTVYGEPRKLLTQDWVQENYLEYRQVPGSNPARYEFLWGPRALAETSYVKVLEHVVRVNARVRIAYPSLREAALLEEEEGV
Procedure: Recombinant MAGEA3- and recombinant MAGEA4-protein were separated in SDS-PAGE and blotted onto membranes. Membranes were incubated with human antibodies 122G3 or 32H2. Binding of human antibodies to proteins on the membrane was evaluated using an HRP-labeled goat anti human IgG (Jackson Immunoresearch, Milan Analytica AG, Rheinfelden, Switzerland). The results are depicted in FIG. 3.

B1: 122G3 (antibody, V domains shown)
VH: QVQLVQSGAEVKKPGASVKVSCKASGYTFTNYAIHWVRQAPGQRLEWMGWINAGKGNTKYSQKFQGRVTITRDTSADTTYMELSSLRSEDTAVYFCAQAGLSSGLYRDYWGQGTPVTVSS
VL: EIVMTQSPATLSVSPGERATLSCRASQSVSSDLAWYQQKRGQAPRLLIYGASTRATGIPARFSGSGSGTEFTLTISSLQSEDFAVYWCQQYNDWPLTFGGGTKVEIN
notes: Patient-derived human antibody made recombinantly; also called human monoclonal antibody 122G3
In the case of B1, the EC50 [1] is reported as 0.023 nM, the “EC50 (read off the curve)” value [1] is reported as ~0.02 nM and the binding result [2] is reported as “no binding (tested: 1 µg/ml)”. B1: no binding (tested: 1 µg/ml) [3]; no binding (tested: 1 µg/ml) [4]; no binding (tested: 1 µg/ml) [5]. B1: no binding (tested: 1 µg/ml) [6]; no binding (tested: 1 µg/ml) [7]; no binding (tested: 1 µg/ml) [8]. B1: no binding (tested: 1 µg/ml) [9]; no binding (tested: 1 µg/ml) [10]; no binding (tested: 1 µg/ml) [11]. B1: no binding (tested: 1 µg/ml) [12]; no binding (tested: 1 µg/ml) [13]; no binding (tested: 1 µg/ml) [14]. B1: no binding (tested: 1 µg/ml) [15]; no binding (tested: 1 µg/ml) [16]; no binding (tested: 1 µg/ml) [17]. B1: no binding (tested: 1 µg/ml) [18]; no binding (tested: 1 µg/ml) [19]; no binding (tested: 1 µg/ml) [20]. B1: no binding (tested: 1 µg/ml) [21]; no binding (tested: 1 µg/ml) [22]; no binding (tested: 1 µg/ml) [23]. B1: no binding (tested: 1 µg/ml) [24]; no binding (tested: 1 µg/ml) [25]; binds [26]. B1: binds [27]; binds [28]; no binding [29].
